Where “and” joins values, the source holds several entries; their conditions need not be identical. Equal values may be shown once.
Assays:
[1] = target: carcinoembryonic antigen (CEA) (UniProt P06731); test: off-rate analysis on the yeast surface at 37 C
[2] = target: T1, carcinoembryonic antigen (CEA) (UniProt P06731 35-685, limits assumed, biotinylated (labelled form); unlabelled CEA (Calbiochem) used as competitor in the off-rate assays); test: yeast surface display, equilibrium titration with biotinylated CEA, flow cytometry, 37 C
T1 construct: also called biotinylated-CEA; bio-CEA
T1 sequence (looked up): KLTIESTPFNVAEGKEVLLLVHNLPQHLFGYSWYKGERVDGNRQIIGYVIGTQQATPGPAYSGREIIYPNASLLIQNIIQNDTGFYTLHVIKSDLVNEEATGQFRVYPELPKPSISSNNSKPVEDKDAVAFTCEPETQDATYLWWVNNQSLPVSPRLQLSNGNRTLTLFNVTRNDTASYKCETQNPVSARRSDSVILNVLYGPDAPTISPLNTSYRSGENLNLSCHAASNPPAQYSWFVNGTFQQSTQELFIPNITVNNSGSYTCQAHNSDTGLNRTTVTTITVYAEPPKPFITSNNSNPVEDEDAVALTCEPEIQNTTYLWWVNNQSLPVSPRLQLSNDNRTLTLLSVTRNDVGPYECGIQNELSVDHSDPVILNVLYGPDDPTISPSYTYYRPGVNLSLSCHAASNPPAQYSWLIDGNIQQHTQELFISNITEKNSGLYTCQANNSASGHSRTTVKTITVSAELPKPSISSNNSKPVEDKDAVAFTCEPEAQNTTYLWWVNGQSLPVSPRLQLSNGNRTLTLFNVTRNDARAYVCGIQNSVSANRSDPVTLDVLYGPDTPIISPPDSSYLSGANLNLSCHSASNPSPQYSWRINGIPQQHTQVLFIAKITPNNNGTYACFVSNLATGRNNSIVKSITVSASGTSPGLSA
Description: Equilibrium binding constants KD for CEA at 37° C. A) Plot of CEA binding (measured fluorescence) versus CEA concentration. B) CEA binding (normalized for different display levels) versus CEA concentration. […] C) Soluble production of MFE-23 (1) and hMFE (2) at 37° C. for 48 hours. Additional lanes are the scFvs produced at 37° C. and 20° C. for varying amounts of time.

[3] = target: T1, carcinoembryonic antigen (CEA); test: yeast surface display, off-rate analysis
[4] = target: T1, carcinoembryonic antigen (CEA); test: yeast surface display, dissociation of biotinylated CEA in excess unlabelled CEA, flow cytometry
Description: Binding analysis of clones isolated from aggressive hMFE Library sort. A) Equilibrium Titration (Example 3). hMFE (kD±8.5±0.5 nM) (●), m9B (kD=0.8±0.1 nM) (▪), m10B (kD=0.08±0.01 nM) (♦)B). Off-rate. Dissociation rates were measured by first labeling yeast displaying the scFv of interest with biotinylated CEA. Then, the labeled cells were washed and incubated with an excess of nonbiotinylated CEA. Dissociation of labeled CEA from the cells was followed at the single cell level by flow cytometry and streptavidin-PE labeling, as described in Example 3. hMFE (koff=1.2±0.1×10⁻³ s⁻¹) (●), m9B (koff=7.5±0.4×10⁻⁵ s⁻¹) (▪), m10B (koff=6.0±0.4×10⁻⁶ s⁻¹) (♦).

[5] = target: T1, carcinoembryonic antigen (CEA); test: off-rate analysis on the yeast surface at 37 C
[6] = target: T1, carcinoembryonic antigen (CEA); test: yeast surface display, equilibrium titration with biotinylated CEA, flow cytometry
[7] = target: T1, carcinoembryonic antigen (CEA); test: yeast surface display, equilibrium titration with biotinylated CEA
[8] = target: T1, carcinoembryonic antigen (CEA); test: yeast surface display, dissociation of biotinylated CEA in 100-fold excess unlabelled CEA at 37 C, flow cytometry
[9] = target: T1, carcinoembryonic antigen (CEA); test: yeast surface display, off-rate analysis with biotinylated CEA and excess unlabelled CEA, flow cytometry

A koff [1] of 1.2e-06 s⁻¹ was found for sm3E+T98A (scFv) in this work.

B1: humanized MFE-23 (hMFE) scFv (scFv)
scFv: PYDVPDYALQASGGGGSGGGGSGGGGSASQVKLEQSGAEVVKPGASVKLSCKASGFNIKDSYMHWLRQGPGQRLEWIGWIDPENGDTEYAPKFQGKATFTTDTSANTAYLGLSSLRPEDTAVYYCNEGTPTGPYYFDYWGQGTLVTVSSGGGGSGGGGSGGGGSENVLTQSPSSMSASVGDRVNIACSASSSVSYMHWFQQKPGKSPKLWIYSTSNLASGVPSRFSGSGSGTDYSLTISSMQPEDAATYYCQQRSSYPLTFGGGTKLEIKAAAGSEQKLISEEDL
notes: also called hMFE-23; resurfaced scFv
In the case of B1, the Kd [2] is reported as 8.3 nM and 8.5 nM, the “half-life for binding to CEA” value [3] is reported as 0.00694 days and the koff [4] is reported as 0.0012 s⁻¹. The koff [5] was 0.0009 s⁻¹.

B2: m10B (scFv)
chain: PYDVPDYALQASGGGGSGGGGSGGGGSASQVKLEQSGAEVVKPGASVKLSCKASGFNIKDSYMHWLRQGPGQRLEWIGWIDPENGDTEYAPKFQGKATFTTDTSANTAYLGLSSLRPEDTAVYYCNEGTPTGPYYFDYWGQGTLVTVSSGGGGSGGGGSGGGGSENVLTQSPSSMSASVGDRVNIACSASSSVSYMHWFQQKPGKSPKLWIYLTSNLASGVPSRFSGSGSGTDYSLTISSMQPEDAATYYCQQRSSYPLTFGGGTKLEIKAAAGSEQKLISEEDL
For B2, the Kd [6] was 0.08 nM, the “fold improvement in the affinity over hMFE” value [7] was 100 fold and the “fold improvement in the off-rate over hMFE” value [3] was 200 fold. The koff [4] was 6e-06 s⁻¹.

B3: m3E (scFv)
chain: PYDVPDYALQASGGGGSGGGGSGGGGSASQVKLEQSGAEVVKPGASVKLSCKASGFNIKDSYMHWLRQGPGQRLEWIGWIDPENGDTEYAPKFQGKATFTTDTSANTAYLGLSSLRPEDTAVYYCNEGTPTGPYYFDYWGQGTLVTVSSGGGGSGGGGSGGGGSENVLTQSPSSMSASVGDRVNIACSASSSVSYMHWLQQKPGKSPKLWIYLTSNLASGVPSRFSGSGSGTDYSLTISSMQPEDAATYYCQQRSSYPLTFGGGTKLEIKAAAGSEQKLISEEDL
For B3, the koff [8] was 1.2e-06 s⁻¹ and the “half-life for binding to CEA” value [3] was roughly 7 days.

B4: m7E (scFv)
chain: PYDVPDYALQASGGGGSGGGGSGGGGSASQVKLEQSGAEVVKPGASVKLSCKASGFNIKDSYMHWLRQGPGQRLEWIGWIDPENGDTEYAPKFQGKATFTTDTSANTAYLGLSSLRPEDTAVYYCNEGTPTGPYYFDYWGQGTLVTVSSGGGGSGGGGSGGGGSENVLTQSPSSMSASVGDRVNIACNASSSVSYMHWLQQKPGKSPKLWIYLTSNLAPGVPSRFSGSGSGTDYSLTISSMQPEDAATYYCQQRSSYPLTFGGGTKLEIKAAAGSEQKLISEEDL
A koff [8] of 1.8e-06 s⁻¹ was found for B4 in this work.

B5: m8E (scFv)
chain: PYDVPDYALQASGGGGSGGGGSGGGGSASQVKLEQSGAEVVKPGASVKLSCKASGFNIKDSYMHWLRQGPGQRLEWIGWIDPQNGDTEYAPKFQGKATFTTDTSANTAYLGLSSLRPEDTAVYYCNEGTPAGPYYFDYWGQGTLVTVSSGGGGSGGGGSGGGGSENVLTQSPSSMSASVGDRVNIACSASSSVSYMHWFQQKPGKSPKLWIYLTSNLAPGVPSRFSGSGSGTDYSLTISSMQPEDAATYYCQQRSSYPLTFGGGTKLEIKAAAGSEQKLISEEDL
A koff [8] of 2.6e-06 s⁻¹ was found for B5 in this work.

B6: sm9B (scFv)
chain: PYDVPDYALQASGGGGSGGGGSGGGGSASQVKLEQSGAEVVKPGASVKLSCKASGFNIKDSYMHWLRQGPGQRLEWIGWIDPENGDTEYAPKFQGKATFTTDTSANTAYLGLSSLRPEDTAVYYCNEGTPTGPYYFDYWGQGTLVTVSSGGGGSGGGGSGGGGSENVLTQSPSSMSASVGDRVTIACSASSSVPYMHWLQQKPGKSPKLLIYSTSNLASGVPSRFSGSGSGTDYSLTISSVQPEDAATYYCQQRSSYPLTFGGGTKLEIKAAAGSEQKLISEEDL
A koff [9] of 0.00011 s⁻¹ was found for B6 in this work.

B7: sm10B (scFv)
chain: PYDVPDYALQASGGGGSGGGGSGGGGSASQVKLEQSGAEVVKPGASVKLSCKASGFNIKDSYMHWLRQGPGQRLEWIGWIDPENGDTEYAPKFQGKATFTTDTSANTAYLGLSSLRPEDTAVYYCNEGTPTGPYYFDYWGQGTLVTVSSGGGGSGGGGSGGGGSENVLTQSPSSMSASVGDRVTIACSASSSVPYMHWFQQKPGKSPKLLIYLTSNLASGVPSRFSGSGSGTDYSLTISSVQPEDAATYYCQQRSSYPLTFGGGTKLEIKAAAGSEQKLISEEDL
A koff [9] of 8.3e-06 s⁻¹ and a koff [5] of 8.2e-06 s⁻¹ were found for B7 in this work.

B8: hMFE+T98A (scFv)
chain: PYDVPDYALQASGGGGSGGGGSGGGGSASQVKLEQSGAEVVKPGASVKLSCKASGFNIKDSYMHWLRQGPGQRLEWIGWIDPENGDTEYAPKFQGKATFTTDTSANTAYLGLSSLRPEDTAVYYCNEGTPAGPYYFDYWGQGTLVTVSSGGGGSGGGGSGGGGSENVLTQSPSSMSASVGDRVNIACSASSSVSYMHWFQQKPGKSPKLWIYSTSNLASGVPSRFSGSGSGTDYSLTISSMQPEDAATYYCQQRSSYPLTFGGGTKLEIKAAAGSEQKLISEEDL
For B8, the “fold improvement in off-rate over hMFE” value [5] was 1.5 fold and the koff [5] was 0.0006 s⁻¹.

B9: MFE-23 scFv (scFv)
scFv: QVKLQQSGAELVRSGTSVKLSCTASGFNIKDSYMHWLRQGPEQGLEWIGWIDPENGDTEYAPKFQGKATFTTDTSSNTAYLQLSSLTSEDTAVYYCNEGTPTGPYYFDYWGQGTTVTVSSGGGGSGGGGSGGGGSENVLTQSPAIMSASPGEKVTITCSASSSVSYMHWFQQKPGTSPKLWIYSTSNLASGVPARFSGSGSGTSYSLTISRMEAEDAATYYCQQRSSYPLTFGAGTKLELKRAA
notes: Tested on the yeast surface as an Aga2p fusion in pCTCON, with an HA tag N-terminal and a c-myc tag C-terminal of the scFv
In the case of B9, the Kd [2] is reported as 8.3 nM and 7.5 nM.

B10: sm10B+T98A (scFv)
chain: PYDVPDYALQASGGGGSGGGGSGGGGSASQVKLEQSGAEVVKPGASVKLSCKASGFNIKDSYMHWLRQGPGQRLEWIGWIDPENGDTEYAPKFQGKATFTTDTSANTAYLGLSSLRPEDTAVYYCNEGTPAGPYYFDYWGQGTLVTVSSGGGGSGGGGSGGGGSENVLTQSPSSMSASVGDRVTIACSASSSVPYMHWFQQKPGKSPKLLIYLTSNLASGVPSRFSGSGSGTDYSLTISSVQPEDAATYYCQQRSSYPLTFGGGTKLEIKAAAGSEQKLISEEDL
A koff [5] of 6.8e-06 s⁻¹ was found for B10 in this work.

B11: m9B (scFv)
chain: PYDVPDYALQASGGGGSGGGGSGGGGSASQVKLEQSGAEVVKPGASVKLSCKASGFNIKDSYMHWLRQGPGQRLEWIGWIDPENGDTEYAPKFQGKATFTTDTSANTAYLGLSSLRPEDTAVYYCNEGTPTGPYYFDYWGQGTLVTVSSGGGGSGGGGSGGGGSENVLTQSPSSMSASVGDRVNIACSASSSVSYMHWLQQKPGKSPKLWIYSTSNLASGVPSRFSGSGSGTDYSLTISSMQPEDAATYYCQQRSSYPLTFGGGTKLEIKAAAGSEQKLISEEDL
In the case of B11, the Kd [6] is reported as 0.8 nM, the “fold improvement in the dissociation constant over hMFE” value [7] is reported as 10 fold and the “fold improvement in the off-rate over hMFE” value [3] is reported as 16 fold. The koff [4] was 7.5e-05 s⁻¹.

Source: patent publication US20050147614A1 (CANCER RESEARCH TECHNOLOGY, published 2005)
